From publication PMC11592666 come the findings set out here.

In one experiment the target is GST-Atg8a wild type (UniProt Q9W2S2). Kind of experiment: GST pull-down. The conditions noted are these: parent: est. 27; read off a plot.
The target in a further experiment is His-Dwg wild type. Briefly: GST pull-down. The conditions noted are these: parent: est. 41; read off a plot.

UniProt Q9W2S2, sequence (Q9W2S2 entry or part of it): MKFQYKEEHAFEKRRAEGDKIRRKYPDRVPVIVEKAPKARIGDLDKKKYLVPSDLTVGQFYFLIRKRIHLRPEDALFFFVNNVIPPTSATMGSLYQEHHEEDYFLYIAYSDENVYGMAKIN

For the substance His-Dwg wild type Y129A; I132A, in the experiment with GST-Atg8a wild type, the other: Fold Change turned out to be 9.5. Consider “GST-Atg8a wild type (from UniProt Q9W2S2) Y49A”, for which the other: Fold Change with His-Dwg wild type is 4.4.
